Experimental data reported in publication PMC11189300, “Structure of the human KMN complex and implications for regulation of its assembly” (Nature Structural & Molecular Biology, 2024).
Where a chain is given by its changes, count along the chain named. In names and notes the source's numbering stands.

B1: SPC25_(92–224) (domain or fragment, human, UniProt Q9HBM1 92-224, looked up)
chain: KKQELEVLTANIQDLKEEYSRKKETISTANKANAERLKRLQKSADLYKDRLGLEIRKIYGEKLQFIFTNIDPKNPESPFMFSLHLNEARDYEVSDSAPHLEGLAEFQENVRKTNNFSAFLANVRKAFTATVYN
notes: SPC25, human, residues 92–224 (RWD domain); source: E. coli BL21(DE3)-codon-plus-RIPL, co-purified with SPC24 (glutathione-agarose, 3C protease, SEC)
B2: KNL1 residues 2,021–2,342 (domain or fragment, human, UniProt Q8NG31 2021-2342, looked up)
chain: GKLVQSAQNEREKLQIKIDEMDKILKKIDNCLTEMETETKNLEDEEKNNPVEEWDSEMRAAEKELEQLKTEEEELQRNLLELEVQKEQTLAQIDFMQKQRNRTEELLDQLSLSEWDVVEWSDDQAVFTFVYDTIQLTITFEESVVGFPFLDKRYRKIVDVNFQSLLDEDQAPPSSLLVHKLIFQYVEEKESWKKTCTTQHQLPKMLEEFSLVVHHCRLLGEEIEYLKRWGPNYNLMNIDINNNELRLLFSSSAAFAKFEITLFLSAYYPSVPLPSTIQNHVGNTSQDDIATILSKVPLENNYLKNVVKQIYQDLFQDCHFYH
notes: KNL1 (CASC5), human, C-terminal region, residues 2,021–2,342; numbering of isoform 1 of the CASC5 gene; also called KNL1_(2,021–2,342); Knl1_(2,021–2,342); source: E. coli BL21(DE3)-Codon-plus-RIPL, purified (glutathione-agarose, TEV cleavage, SEC)
B3: SPC24/SPC25^L154A-L176A (complex, human)
chain 1: MAAFRDIEEVSQGLLSLLGANRAEAQQRRLLGRHEQVVERLLETQDGAEKQLREILTMEKEVAQSLLNAKEQVHQGGVELQQLEAGLQEAGEEDTRLKASLLQLTRELEELKEIEADLERQEKEVDEDTTVTIPSAVYVAQLYHQVSKIEWDYECEPGMVKGIHHGPSVAQPIHLDSTQLSRKFISDYLWSLVDTEW
chain 2: MVEDELALFDKSINEFWNKFKSTDTSCQMAGLRDTYKDSIKAFAEKLSVKLKEEERMVEMFLEYQNQISRQNKLIQEKKDNLLKLIAEVKGKKQELEVLTANIQDLKEEYSRKKETISTANKANAERLKRLQKSADLYKDRLGLEIRKIYGEKAQFIFTNIDPKNPESPFMFSLHANEARDYEVSDSAPHLEGLAEFQENVRKTNNFSAFLANVRKAFTATVYN
notes: SPC24, human; SPC25, human, L154A and L176A; limits not restated, likely full length; GST cleaved off with 3C protease; also called SPC^M2; source: E. coli BL21(DE3)-codon-plus-RIPL, purified (glutathione-agarose, 3C protease, SEC)
B4: SPC24^Y138A/SPC25 (complex, human)
chain 1: B3 chain 1 with Y138A
chain 2: B3 chain 2 with A154L, A176L
notes: SPC24, human, Y138A; SPC25, human; limits not restated, likely full length; GST cleaved off with 3C protease; also called SPC^M1; source: E. coli BL21(DE3)-codon-plus-RIPL, purified (glutathione-agarose, 3C protease, SEC)
B5: Mis12 complex (Mis12C), full length: MIS12, PMF1, NSL1, DSN1 (complex, human)
chain 1: MSVDPMTYEAQFFGFTPQTCMLRIYIAFQDYLFEVMQAVEQVILKKLDGIPDCDISPVQIRKCTEKFLCFMKGHFDNLFSKMEQLFLQLILRIPSNILLPEDKCKETPYSEEDFQHLQKEIEQLQEKYKTELCTKQALLAELEEQKIVQAKLKQTLTFFDELHNVGRDHGTSDFRESLVSLVQNSRKLQNIRDNVEKESKRLKIS
chain 2: MAEASSANLGSGCEEKRHEGSSSESVPPGTTISRVKLLDTMVDTFLQKLVAAGSYQRFTDCYKCFYQLQPAMTQQIYDKFIAQLQTSIREEISDIKEEGNLEAVLNALDKIVEEGKVRKEPAWRPSGIPEKDLHSVMAPYFLQQRDTLRRHVQKQEAENQQLADAVLAGRRQVEELQLQVQAQQQAWQALHREQRELVAVLREPE
chain 3: MAGSPELVVLDPPWDKELAAGTESQALVSATPREDFRVRCTSKRAVTEMLQLCGRFVQKLGDALPEEIREPALRDAQWTFESAVQENISINGQAWQEASDNCFMDSDIKVLEDQFDEIIVDIATKRKQYPRKILECVIKTIKAKQEILKQYHPVVHPLDLKYDPDPAPHMENLKCRGETVAKEISEAMKSLPALIEQGEGFSQVLRMQPVIHLQRIHQEVFSSCHRKPDAKPENFITQIETTPTETASRKTSDMVLKRKQTKDCPQRKWYPLRPKKINLDT
chain 4: MTSVTRSEIIDEKGPVMSKTHDHQLESSLSPVEVFAKTSASLEMNQGVSEERIHLGSSPKKGGNCDLSHQERLQSKSLHLSPQEQSASYQDRRQSWRRASMKETNRRKSLHPIHQGITELSRSISVDLAESKRLGCLLLSSFQFSIQKLEPFLRDTKGFSLESFRAKASSLSEELKHFADGLETDGTLQKCFEDSNGKASDFSLEASVAEMKEYITKFSLERQTWDQLLLHYQQEAKEILSRGSTEAKITEVKVEPMTYLGSSQNEVLNTKPDYQKILQNQSKVFDCMELVMDELQGSVKQLQAFMDESTQCFQKVSVQLGKRSMQQLDPSPARKLLKLQLQNPPAIHGSGSGSCQ
notes: MIS12, human, subunit of the Mis12 complex; PMF1, human, subunit of the Mis12 complex; NSL1, human, subunit of the Mis12 complex; DSN1, human, subunit of the Mis12 complex (DSN1^SORT-HIS); In BLI one partner was biotinylated by sortase (GGGG-biotin peptide); also called Mis12C^WT; wild-type Mis12C; source: Tnao38 insect cells (baculovirus from pBIG1A), purified (Talon, SEC); copies: + + +
B6: Mis12C with KNL1_(2,026–2,342) bound (complex, human)
chain 1: B5 chain 1
chain 2: B5 chain 2
chain 3: B5 chain 3
chain 4: B5 chain 4
chain 5: SAQNEREKLQIKIDEMDKILKKIDNCLTEMETETKNLEDEEKNNPVEEWDSEMRAAEKELEQLKTEEEELQRNLLELEVQKEQTLAQIDFMQKQRNRTEELLDQLSLSEWDVVEWSDDQAVFTFVYDTIQLTITFEESVVGFPFLDKRYRKIVDVNFQSLLDEDQAPPSSLLVHKLIFQYVEEKESWKKTCTTQHQLPKMLEEFSLVVHHCRLLGEEIEYLKRWGPNYNLMNIDINNNELRLLFSSSAAFAKFEITLFLSAYYPSVPLPSTIQNHVGNTSQDDIATILSKVPLENNYLKNVVKQIYQDLFQDCHFYH
notes: MIS12, human; PMF1, human; NSL1, human; DSN1, human; numbering of isoform 1 of the CASC5 gene; also called Mis12C + KNL1; source: Mis12C: Tnao38 insect cells, purified; KNL1: E. coli BL21(DE3)-Codon-plus-RIPL, purified; copies: + + + +
B7: PMF1 (subunit of Mis12C in the KMN structure) (natural protein, human, UniProt Q6P1K2 1-205, looked up)
chain: B5 chain 2
notes: PMF1, human; source: Tnao38 insect cells (baculovirus), co-expressed in Mis12C, purified (Talon, SEC)
B8: NSL1 (subunit of Mis12C in the KMN structure) (natural protein, human, UniProt Q96IY1 1-281, looked up)
chain: B5 chain 3
notes: NSL1, human; source: Tnao38 insect cells (baculovirus), co-expressed in Mis12C, purified (Talon, SEC)

Columns and labels:
Conditions in all cases: both partners purified
[1] = molecular target: T1, DSN1 (subunit of Mis12C in the KMN structure) (human, UniProt Q9H410 1-356); test: cryo-EM structure; eight-subunit KMN (full-length Mis12C, SPC24 109–197/SPC25 92–224, ZWINT, KNL1 2,021–2,342), 0.3 mg/ml with 0.003% Triton; reconstruction at 4.5 Å; model fitted from known structures and AF2 predictions and refined against the map
T1 construct: DSN1, human; also called DSN1^SORT-HIS; source: Tnao38 insect cells (baculovirus), co-expressed in Mis12C, purified (Talon, SEC)
T1 sequence (looked up): B5 chain 4

[2] = molecular target: B5; test: as above
[3] = molecular target: B5; test: ITC; PEAQ-ITC; 50 mM HEPES pH 8.0, 150 mM NaCl, 1 mM TCEP; 19 injections; one-site binding fit
[4] = molecular target: T2, Ndc80 complex (Ndc80C): NDC80^HEC1, NUF2, SPC24, SPC25 (human, UniProt O14777 1-642; Q9BZD4 1-464; Q8NBT2 1-197; Q9HBM1 1-224); test: BLI; Octet SA biosensors loaded with the biotinylated ligand, analyte at different concentrations; 25 °C; 50 mM HEPES pH 8.0, 150 mM NaCl, 2 mM TCEP, 0.05% Tween-20; which partner was loaded is not given
T2 construct: NDC80 (HEC1), human; NUF2, human; SPC24, human; SPC25, human; also called complete Ndc80C; copies: + + +

[5] = molecular target: B2; test: cryo-EM structure; eight-subunit KMN (full-length Mis12C, SPC24 109–197/SPC25 92–224, ZWINT, KNL1 2,021–2,342), 0.3 mg/ml with 0.003% Triton; reconstruction at 4.5 Å; model fitted from known structures and AF2 predictions and refined against the map

T2 sequence (O14777 whole entry, chain 1 of 2): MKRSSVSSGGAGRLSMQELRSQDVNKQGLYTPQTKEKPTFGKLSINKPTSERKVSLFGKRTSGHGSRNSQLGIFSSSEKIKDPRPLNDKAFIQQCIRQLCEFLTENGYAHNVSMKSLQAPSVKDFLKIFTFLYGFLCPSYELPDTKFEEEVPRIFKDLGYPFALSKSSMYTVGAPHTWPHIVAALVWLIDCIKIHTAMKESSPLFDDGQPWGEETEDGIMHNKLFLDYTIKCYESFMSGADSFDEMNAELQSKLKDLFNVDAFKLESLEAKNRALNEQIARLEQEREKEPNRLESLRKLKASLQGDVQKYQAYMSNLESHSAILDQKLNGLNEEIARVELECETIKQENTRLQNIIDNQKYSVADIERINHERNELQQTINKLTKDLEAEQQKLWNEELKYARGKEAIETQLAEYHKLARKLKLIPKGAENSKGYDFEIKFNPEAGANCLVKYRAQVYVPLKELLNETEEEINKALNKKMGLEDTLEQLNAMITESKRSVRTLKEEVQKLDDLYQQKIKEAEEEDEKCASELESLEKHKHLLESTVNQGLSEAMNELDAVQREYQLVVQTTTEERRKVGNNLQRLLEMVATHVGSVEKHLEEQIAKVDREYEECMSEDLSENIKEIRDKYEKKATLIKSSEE
T2 sequence (Q9BZD4 whole entry, chain 2 of 2): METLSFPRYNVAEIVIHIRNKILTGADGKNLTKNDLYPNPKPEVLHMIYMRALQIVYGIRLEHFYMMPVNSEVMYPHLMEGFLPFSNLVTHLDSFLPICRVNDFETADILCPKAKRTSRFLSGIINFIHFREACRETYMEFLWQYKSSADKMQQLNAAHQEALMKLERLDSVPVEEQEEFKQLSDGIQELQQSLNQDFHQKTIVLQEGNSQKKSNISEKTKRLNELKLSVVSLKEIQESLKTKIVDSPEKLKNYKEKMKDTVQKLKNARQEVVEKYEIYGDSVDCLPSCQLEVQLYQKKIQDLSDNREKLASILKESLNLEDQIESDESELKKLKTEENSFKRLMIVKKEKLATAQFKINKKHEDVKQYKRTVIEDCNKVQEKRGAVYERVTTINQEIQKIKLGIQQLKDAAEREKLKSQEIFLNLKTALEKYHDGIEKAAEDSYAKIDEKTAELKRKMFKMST

Q: Does B1 bind [1]?
A: binds

Q: Does B2 bind [2]?
A: binds

Q: Does B2 bind [1]?
A: binds

Q: For B3, which “fold reduction of binding affinity against the wild-type pair” value [3] is on record?
A: ~27 fold

Q: Which “fold reduction of binding affinity against the wild-type pair” value [3] does the source give for B4 here?
A: ~5 fold

Q: How did the Kd [4] turn out when B5 was run?
A: ~6 nM

Q: With B6 as the binder, how does the Kd [4] read?
A: ~1 nM

Q: Does B7 bind [5]?
A: binds

Q: Does B8 bind [5]?
A: binds
